In article PMC7924340 (Toxins, 2021):

Experiments:
[1] = target: Acetylcholine binding protein from Aplysia californica (Aplysia californica); test: radioligand binding
[2] = target: T1, Acetylcholine binding protein from Lymnaea stagnalis (Lymnaea stagnalis, UniProt P58154 20-229); test: radioligand binding; conditions: both partners purified
T1 construct: also called AChBP L. stagnalis; L. stagnalis AChBP

## α-Cobratoxin from cobra Naja kaouthia venom (from UniProt P01391 1-71) (natural protein)
[1]
  IC50: 385 nM

B1: α-Cobratoxin from cobra Naja kaouthia venom (natural protein)
chain: IRCFITPDITSKDCPNGHVCYTKTWCDAFCSIRGKRVDLGCAATCPTVKTGVDIQCCSTDNCNPFPTRKRP
[2]
  IC50: 25.4 ± 0.8 nM
